In the Immune Epitope Database (IEDB):

Key:
HLA-A*68:23 = test: IEDB peptide-MHC binding, purified MHC/competitive/fluorescence; filed as Kd, often an IC50 or EC50 that approximates it; ≥ and ≤ were set here for values at or beyond the usual limits of such assays; details: source organism: human gammaherpesvirus 4
HLA-A*32:07 = test: as above; details: source organism: human gammaherpesvirus 4
HLA-B*27:20 = test: as above; details: source organism: human gammaherpesvirus 4
HLA-A*32:15 = test: as above; details: source organism: human gammaherpesvirus 4
HLA-B*45:06 = test: as above; details: source organism: human gammaherpesvirus 4
HLA-B*15:42 = test: as above; details: source organism: human gammaherpesvirus 4
HLA-B*83:01 = test: as above; details: source organism: human gammaherpesvirus 4
HLA-C*07:02 = test: IEDB peptide-MHC binding, purified MHC/direct/fluorescence; filed as Kd, often an IC50 or EC50 that approximates it; ≥ and ≤ were set here for values at or beyond the usual limits of such assays; details: source organism: human gammaherpesvirus 4
HLA-C*14:02 = test: as above; details: source organism: human gammaherpesvirus 4
HLA-C*15:02 = test: as above; details: source organism: human gammaherpesvirus 4
HLA-B*73:01 = test: as above
HLA-B*51:01 = test: as above; details: source organism: Cryptosporidium parvum Iowa II
HLA-B*27:03 = test: as above; details: source organism: Cryptosporidium parvum Iowa II
HLA-B*57:01 = test: as above; details: source organism: Cryptosporidium parvum Iowa II
HLA-A*03:01 = test: as above
HLA-A*02:01 = test: as above
HLA-A*26:01 = test: as above
HLA-B*46:01 = test: as above; details: source organism: Cryptosporidium parvum Iowa II
HLA-B*15:17 = test: as above; details: source organism: Cryptosporidium parvum Iowa II
HLA-A*02:06 = test: as above; details: source organism: Cryptosporidium parvum Iowa II
HLA-A*02:12 = test: as above; details: source organism: Cryptosporidium parvum Iowa II
HLA-B*27:05 = test: as above; details: source organism: Cryptosporidium parvum
HLA-B*58:01 = test: as above; details: source organism: Cryptosporidium parvum
HLA-A*30:01 = test: as above; details: source organism: Cryptosporidium parvum
HLA-A*01:01 = test: as above; details: source organism: Cryptosporidium parvum
HLA-B*44:02 = test: as above; details: source organism: Cryptosporidium parvum
HLA-B*15:01 = test: as above; details: source organism: Cryptosporidium parvum
HLA-B*40:01 = test: as above; details: source organism: Cryptosporidium parvum
HLA-A*11:01 = test: as above; details: source organism: Cryptosporidium parvum
HLA-B*08:01 = test: as above; details: source organism: Cryptosporidium parvum
HLA-A*31:01 = test: as above; details: source organism: Cryptosporidium parvum
HLA-A*69:01 = test: as above; details: source organism: Cryptosporidium parvum
HLA-B*07:02 = test: as above; details: source organism: Cryptosporidium parvum
[1] = source organism: Cryptosporidium parvum Iowa II
[2] = source organism: Cryptosporidium parvum

Sequence: MMAKSNSPF
- Kd (HLA-A*68:23): 0.0431 µM
- Kd (HLA-A*32:07): 0.1 µM
- Kd (HLA-B*27:20): 0.0487 µM
- Kd (HLA-A*32:15): 0.0428 µM
- Kd (HLA-B*45:06): ≥ 5 µM
- Kd (HLA-B*15:42): ≥ 5 µM
- Kd (HLA-B*83:01): ≥ 5 µM
- Kd (HLA-C*07:02): 3.16 µM
- Kd (HLA-C*14:02): 0.008 µM
- Kd (HLA-C*15:02): ≥ 20 µM

Sequence: FQANMFLTL
- Kd (HLA-B*73:01; source organism: Bacillus anthracis): ≥ 20 µM

Sequence: KQMSQPYAV
- Kd (HLA-B*51:01): ≥ 20 µM
- Kd (HLA-B*27:03): ≥ 20 µM
- Kd (HLA-B*57:01): ≥ 20 µM
- Kd (HLA-A*03:01; [1]): ≥ 20 µM
- Kd (HLA-A*02:01; [1]): 0.002 µM
- Kd (HLA-A*26:01; [1]): ≥ 20 µM
- Kd (HLA-B*46:01): ≥ 20 µM
- Kd (HLA-B*15:17): ≥ 20 µM
- Kd (HLA-A*02:06): ≤ 0.001 µM
- Kd (HLA-A*02:12): ≤ 0.001 µM

Sequence: KHNSAESAK
- Kd (HLA-B*27:05): ≥ 20 µM
- Kd (HLA-B*58:01): ≥ 20 µM
- Kd (HLA-A*30:01): 11.9 µM
- Kd (HLA-A*03:01; [2]): 12.3 µM
- Kd (HLA-A*02:01; [2]): ≥ 20 µM
- Kd (HLA-A*26:01; [2]): ≥ 20 µM
- Kd (HLA-B*73:01; [1]): ≥ 20 µM
- Kd (HLA-A*01:01): ≥ 20 µM
- Kd (HLA-B*44:02): ≥ 20 µM
- Kd (HLA-B*15:01): ≥ 20 µM
- Kd (HLA-B*40:01): ≥ 20 µM
- Kd (HLA-A*11:01): ≥ 20 µM
- Kd (HLA-B*08:01): ≥ 20 µM
- Kd (HLA-A*31:01): ≥ 20 µM
- Kd (HLA-A*69:01): ≥ 20 µM
- Kd (HLA-B*07:02): ≥ 20 µM
